The source of these data is patent US20170189510A1.

A value given as a limit tells only on which side of the number the result lay.

The experiment concerns the target HLA-A*24 (human). Put plainly: UV-ligand exchange, anti-b2m ELISA. On the technique in general: In an ELISA, binding on a coated surface is turned into a signal by an enzyme label.
LYITEPKTI [peptide SEQ ID No 287 …] came in with a peptide exchange yield of 50 to 75%. Next, TYELRYFQI [peptide SEQ ID No 204 …]: over 75%; RYAEEVGIF [peptide SEQ ID No 199 …]: 50 to 75%; QYLGQIQHI [peptide SEQ ID No 268 …]: 50 to 75%. Next, VYVGGGQIIHL [peptide SEQ ID No 174 …]: 50 to 75%. EYSLFPGQVVI [peptide SEQ ID No 197 …] had a peptide exchange yield of 50 to 75%.

In turn, HYPPVQVLF [peptide SEQ ID No 285 …] had a peptide exchange yield of 50 to 75%. As to IYSWILDHF [peptide SEQ ID No 173 …], the peptide exchange yield was over 75%. On to EYNQWFTKL [peptide SEQ ID No 176 …], for which the peptide exchange yield was 50 to 75%.

With YYGPSLFLL [peptide SEQ ID No 200 …], the peptide exchange yield was 50 to 75%. LYIDRPLPYL [peptide SEQ ID No 196 …] showed a peptide exchange yield of 50 to 75%. Turning to AYVVFVSTL [peptide SEQ ID No 207 …], the peptide exchange yield fell in the range of 20 to 49%. As for IYATEAHVF [peptide SEQ ID No 201 …], the peptide exchange yield was in the range of 50 to 75%. Molecule TFSVSSHLF [peptide SEQ ID No 222 …] had a peptide exchange yield of 50 to 75%. For TYSVSFPMF [peptide SEQ ID No 195 …] the value was over 75%; for YYKSTSSAF [peptide SEQ ID No 218 …], 50 to 75%. PYRLIFEKF [peptide SEQ ID No 281 …] returned a peptide exchange yield of 20 to 49%.

On to VYQGHTALL [peptide SEQ ID No 277 …], for which the peptide exchange yield was over 75%.

With VYWDSAGAAHF [peptide SEQ ID No 202 …], the peptide exchange yield is over 75%. The molecule YFIDSTNLKTHF [peptide SEQ ID No 269 …] gave a peptide exchange yield of 50 to 75%. NYYEVHKELF [peptide SEQ ID No 270 …] showed a peptide exchange yield of 50 to 75%. TYKDEGNDYF [peptide SEQ ID No 209 …] registered a peptide exchange yield of 50 to 75%. For the molecule YYEVHKELF [peptide SEQ ID No 175 …], the peptide exchange yield is over 75%.
